Data published in patent US20030138839A1.

Target: human MDM2 (human) (UniProt Q00987)
Experiment: cell-based or functional assay

Chain of human MDM2 (human) (Q00987 whole entry): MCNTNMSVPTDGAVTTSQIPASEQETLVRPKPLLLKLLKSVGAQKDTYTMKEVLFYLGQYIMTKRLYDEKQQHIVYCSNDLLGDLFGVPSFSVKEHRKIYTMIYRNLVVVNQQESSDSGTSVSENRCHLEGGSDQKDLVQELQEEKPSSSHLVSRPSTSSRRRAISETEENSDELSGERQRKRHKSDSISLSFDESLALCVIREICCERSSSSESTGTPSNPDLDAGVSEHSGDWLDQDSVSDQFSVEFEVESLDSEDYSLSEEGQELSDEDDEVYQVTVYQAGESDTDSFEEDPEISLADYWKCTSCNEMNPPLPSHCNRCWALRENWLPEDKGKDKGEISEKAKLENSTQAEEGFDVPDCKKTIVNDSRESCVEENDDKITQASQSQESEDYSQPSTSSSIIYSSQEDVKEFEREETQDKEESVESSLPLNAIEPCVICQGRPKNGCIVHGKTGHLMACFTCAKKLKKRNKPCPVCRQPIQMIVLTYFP

Substance | reduction of the p53 level expressed from a transfected construct in Saos-2 cells (Western blot, relative to alpha-tubulin) | MDM2 half-life after cycloheximide (Western blot); approximately 15 min without TSG101 co-expression
HA-tagged human TSG101 | 70% | –
human TSG101 protein | – | 28 min
